One block for each binder: values may come before it.
Legend:
Assay in all cases: holdup assay
Design in all cases: key: below the threshold = too weak to quantify, mostly under pKd 3.1 to 4
Conditions in all cases: plain residues with an end cap or a label only (N-terminal biotin on a linker: ado-ado)
HTRA2, O43464 = molecular target: HTRA2, O43464
MAGI1_1, Q96QZ7 = molecular target: MAGI1_1, Q96QZ7
MPP7, Q5T2T1 = molecular target: T1, MPP7, Q5T2T1
T1 sequence (Q5T2T1 134-230, limits assumed, looked up): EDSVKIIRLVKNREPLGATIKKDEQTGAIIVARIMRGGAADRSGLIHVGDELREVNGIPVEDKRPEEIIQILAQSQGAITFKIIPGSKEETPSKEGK

GRIP2_4, Q9C0E4 = molecular target: GRIP2_4, Q9C0E4
GRIP2_6, Q9C0E4 = molecular target: GRIP2_6, Q9C0E4
SNTG1, Q9NSN8 = molecular target: T2, SNTG1, Q9NSN8
T2 sequence (Q9NSN8 52-150, limits assumed, looked up): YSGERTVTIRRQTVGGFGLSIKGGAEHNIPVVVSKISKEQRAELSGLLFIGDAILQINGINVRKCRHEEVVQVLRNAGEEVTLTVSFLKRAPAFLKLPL

GRIP2_5, Q9C0E4 = molecular target: GRIP2_5, Q9C0E4
CARD11, Q9BXL7 = molecular target: T3, CARD11, Q9BXL7
T3 sequence (Q9BXL7 662-765, limits assumed, looked up): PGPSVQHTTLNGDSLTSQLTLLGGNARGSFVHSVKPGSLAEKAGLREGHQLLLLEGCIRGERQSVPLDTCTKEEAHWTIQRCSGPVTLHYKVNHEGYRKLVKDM

IL16_3, Q14005 = molecular target: IL16_3, Q14005
LDB3, O75112 = molecular target: LDB3, O75112
LNX1_3, Q8TBB1 = molecular target: LNX1_3, Q8TBB1
LIMK2, P53671 = molecular target: LIMK2, P53671
FRMPD2_3, Q68DX3 = molecular target: FRMPD2_3, Q68DX3
GRIP1_4, Q9Y3R0 = molecular target: T4, GRIP1_4, Q9Y3R0
T4 sequence (Q9Y3R0 467-571, limits assumed, looked up): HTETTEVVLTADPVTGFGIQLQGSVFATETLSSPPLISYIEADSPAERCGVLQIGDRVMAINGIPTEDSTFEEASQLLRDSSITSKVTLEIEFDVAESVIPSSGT

DLG1_2, Q12959 = molecular target: DLG1_2, Q12959
MPP6, Q9NZW5 = molecular target: T5, MPP6, Q9NZW5
T5 sequence (Q9NZW5 125-219, limits assumed, looked up): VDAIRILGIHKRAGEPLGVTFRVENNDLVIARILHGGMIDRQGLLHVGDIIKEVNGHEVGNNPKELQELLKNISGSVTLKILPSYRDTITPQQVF

LIN7A, O14910 = molecular target: T6, LIN7A, O14910
T6 sequence (O14910 103-200, limits assumed, looked up): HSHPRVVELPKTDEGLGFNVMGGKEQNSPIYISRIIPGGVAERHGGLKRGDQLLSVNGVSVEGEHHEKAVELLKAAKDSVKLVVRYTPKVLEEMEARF

MAST1, Q9Y2H9 = molecular target: MAST1, Q9Y2H9
DLG3_2, Q92796 = molecular target: T7, DLG3_2, Q92796
T7 sequence (Q92796 221-321, limits assumed, looked up): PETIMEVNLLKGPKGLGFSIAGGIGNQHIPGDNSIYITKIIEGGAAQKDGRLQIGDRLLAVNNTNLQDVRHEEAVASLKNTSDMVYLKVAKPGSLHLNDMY

LNX1_1, Q8TBB1 = molecular target: LNX1_1, Q8TBB1
HTRA1, Q92743 = molecular target: HTRA1, Q92743
RAPGEF6, Q8TEU7 = molecular target: T8, RAPGEF6, Q8TEU7
T8 sequence (Q8TEU7 525-625, limits assumed, looked up): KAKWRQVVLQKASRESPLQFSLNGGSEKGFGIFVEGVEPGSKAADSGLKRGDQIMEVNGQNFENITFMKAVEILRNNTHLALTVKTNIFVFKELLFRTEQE

PDZRN4_1, Q6ZMN7 = molecular target: PDZRN4_1, Q6ZMN7
Inadl_9, Q8NI35 = molecular target: Inadl_9, Q8NI35
AHNAK1, Q09666 = molecular target: AHNAK1, Q09666
NHERF4_4, Q86UT5 = molecular target: NHERF4_4, Q86UT5
MAGI1_2, Q96QZ7 = molecular target: MAGI1_2, Q96QZ7
FRMPD1, Q5SYB0 = molecular target: T9, FRMPD1, Q5SYB0
T9 sequence (Q5SYB0 52-145, limits assumed, looked up): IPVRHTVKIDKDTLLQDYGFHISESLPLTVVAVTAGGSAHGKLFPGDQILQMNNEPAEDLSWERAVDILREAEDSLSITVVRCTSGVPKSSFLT

IL16_4, Q14005 = molecular target: IL16_4, Q14005
Sequence of IL16_4, Q14005 (Q14005 1229-1329): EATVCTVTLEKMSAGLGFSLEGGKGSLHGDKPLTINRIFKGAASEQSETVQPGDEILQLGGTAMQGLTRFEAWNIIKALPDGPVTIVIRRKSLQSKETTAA

Sequence of Inadl_9, Q8NI35 (Q8NI35 1530-1615): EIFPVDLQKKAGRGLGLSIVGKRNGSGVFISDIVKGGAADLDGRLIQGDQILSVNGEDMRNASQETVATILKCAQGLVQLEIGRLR
Sequence of DLG1_2, Q12959 (Q12959 314-412): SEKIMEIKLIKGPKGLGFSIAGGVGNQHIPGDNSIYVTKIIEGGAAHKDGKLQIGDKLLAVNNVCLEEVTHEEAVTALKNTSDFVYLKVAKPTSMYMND
Sequence of HTRA2, O43464 (O43464 355-458): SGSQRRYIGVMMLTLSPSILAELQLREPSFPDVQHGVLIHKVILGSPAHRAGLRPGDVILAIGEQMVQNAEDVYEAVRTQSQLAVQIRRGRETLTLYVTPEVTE
Sequence of LDB3, O75112 (O75112 1-94): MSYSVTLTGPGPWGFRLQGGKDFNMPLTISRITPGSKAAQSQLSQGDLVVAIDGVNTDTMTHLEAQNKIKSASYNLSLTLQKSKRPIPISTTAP
Sequence of IL16_3, Q14005 (Q14005 1107-1207): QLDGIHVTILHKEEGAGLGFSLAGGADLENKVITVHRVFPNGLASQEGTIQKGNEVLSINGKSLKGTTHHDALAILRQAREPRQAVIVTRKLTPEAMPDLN
Sequence of HTRA1, Q92743 (Q92743 360-477): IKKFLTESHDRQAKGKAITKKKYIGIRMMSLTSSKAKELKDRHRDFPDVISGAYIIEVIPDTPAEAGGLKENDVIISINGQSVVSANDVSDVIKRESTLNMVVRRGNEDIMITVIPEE
Sequence of FRMPD2_3, Q68DX3 (Q68DX3 1073-1166): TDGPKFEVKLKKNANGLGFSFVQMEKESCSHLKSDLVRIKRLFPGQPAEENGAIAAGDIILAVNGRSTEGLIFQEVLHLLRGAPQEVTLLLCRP
Sequence of GRIP2_5, Q9C0E4 (Q9C0E4 544-642): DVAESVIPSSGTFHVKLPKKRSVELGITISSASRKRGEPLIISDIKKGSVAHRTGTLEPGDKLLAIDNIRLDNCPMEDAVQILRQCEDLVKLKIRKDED
Sequence of MAGI1_1, Q96QZ7 (Q96QZ7 1-106): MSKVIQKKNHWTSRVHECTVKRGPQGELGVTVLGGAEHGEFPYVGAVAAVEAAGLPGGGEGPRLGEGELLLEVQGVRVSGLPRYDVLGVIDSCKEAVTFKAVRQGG
Sequence of LIMK2, P53671 (P53671 143-248): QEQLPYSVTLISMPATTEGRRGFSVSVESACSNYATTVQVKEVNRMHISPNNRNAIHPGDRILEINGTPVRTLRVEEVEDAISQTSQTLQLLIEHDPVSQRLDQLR
Sequence of NHERF4_4, Q86UT5 (Q86UT5 464-550): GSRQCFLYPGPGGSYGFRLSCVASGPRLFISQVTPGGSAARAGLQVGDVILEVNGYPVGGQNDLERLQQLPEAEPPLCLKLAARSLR
Sequence of MAGI1_2, Q96QZ7 (Q96QZ7 456-580): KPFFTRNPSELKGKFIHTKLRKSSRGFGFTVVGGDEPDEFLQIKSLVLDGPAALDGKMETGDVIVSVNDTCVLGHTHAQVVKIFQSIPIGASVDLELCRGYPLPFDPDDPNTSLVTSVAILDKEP
Sequence of PDZRN4_1, Q6ZMN7 (Q6ZMN7 213-318): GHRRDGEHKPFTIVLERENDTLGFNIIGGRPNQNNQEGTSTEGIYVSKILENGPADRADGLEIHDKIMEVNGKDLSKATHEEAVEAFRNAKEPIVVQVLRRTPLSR
Sequence of LNX1_3, Q8TBB1 (Q8TBB1 500-596): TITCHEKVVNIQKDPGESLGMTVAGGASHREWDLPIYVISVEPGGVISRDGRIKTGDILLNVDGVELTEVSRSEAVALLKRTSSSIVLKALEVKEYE
Sequence of GRIP2_6, Q9C0E4 (Q9C0E4 648-740): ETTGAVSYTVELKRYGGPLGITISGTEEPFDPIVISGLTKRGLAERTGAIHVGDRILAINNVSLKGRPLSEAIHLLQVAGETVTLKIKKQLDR
Sequence of GRIP2_4, Q9C0E4 (Q9C0E4 446-548): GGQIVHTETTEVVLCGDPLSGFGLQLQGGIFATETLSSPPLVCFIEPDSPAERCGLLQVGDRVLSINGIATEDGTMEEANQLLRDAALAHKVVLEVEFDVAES
Sequence of AHNAK1, Q09666 (Q09666 4-100): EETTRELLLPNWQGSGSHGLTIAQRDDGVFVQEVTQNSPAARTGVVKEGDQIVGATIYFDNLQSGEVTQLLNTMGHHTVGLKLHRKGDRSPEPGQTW
Sequence of LNX1_1, Q8TBB1 (Q8TBB1 261-371): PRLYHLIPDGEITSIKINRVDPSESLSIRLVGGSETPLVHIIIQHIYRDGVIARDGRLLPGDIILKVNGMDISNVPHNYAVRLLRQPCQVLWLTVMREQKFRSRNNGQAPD
Sequence of MAST1, Q9Y2H9 (Q9Y2H9 962-1065): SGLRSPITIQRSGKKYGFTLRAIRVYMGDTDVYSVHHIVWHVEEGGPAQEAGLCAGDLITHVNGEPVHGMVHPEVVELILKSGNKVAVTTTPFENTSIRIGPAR

B2: BPIFA2, Q96DR5 (peptide)
chain: QHKTQLQTLI
pKd (HTRA2, O43464): below the threshold | pKd (MAGI1_1, Q96QZ7): 3.66 | pKd (MPP7, Q5T2T1): below the threshold | pKd (GRIP2_4, Q9C0E4): below the threshold | pKd (GRIP2_6, Q9C0E4): below the threshold | pKd (SNTG1, Q9NSN8): 3.47 | pKd (GRIP2_5, Q9C0E4): below the threshold | pKd (CARD11, Q9BXL7): below the threshold | pKd (IL16_3, Q14005): below the threshold | pKd (LDB3, O75112): below the threshold | pKd (LNX1_3, Q8TBB1): below the threshold | pKd (LIMK2, P53671): below the threshold | pKd (FRMPD2_3, Q68DX3): below the threshold | pKd (GRIP1_4, Q9Y3R0): below the threshold | pKd (DLG1_2, Q12959): 4.88 | pKd (MPP6, Q9NZW5): below the threshold | pKd (LIN7A, O14910): below the threshold | pKd (MAST1, Q9Y2H9): below the threshold | pKd (DLG3_2, Q92796): 4.08 | pKd (LNX1_1, Q8TBB1): 4.27 | pKd (HTRA1, Q92743): 4.06 | pKd (RAPGEF6, Q8TEU7): below the threshold | pKd (PDZRN4_1, Q6ZMN7): below the threshold | pKd (Inadl_9, Q8NI35): below the threshold | pKd (AHNAK1, Q09666): below the threshold | pKd (NHERF4_4, Q86UT5): below the threshold | pKd (MAGI1_2, Q96QZ7): 4.32 | pKd (FRMPD1, Q5SYB0): below the threshold | pKd (IL16_4, Q14005): below the threshold

B3: ABCA7, Q8IZY2 (peptide)
chain: DDPSTAETVL
pKd (HTRA2, O43464): below the threshold | pKd (MAGI1_1, Q96QZ7): below the threshold | pKd (MPP7, Q5T2T1): below the threshold | pKd (GRIP2_4, Q9C0E4): below the threshold | pKd (GRIP2_6, Q9C0E4): below the threshold | pKd (SNTG1, Q9NSN8): 3.66 | pKd (GRIP2_5, Q9C0E4): below the threshold | pKd (CARD11, Q9BXL7): below the threshold | pKd (IL16_3, Q14005): below the threshold | pKd (LDB3, O75112): below the threshold | pKd (LNX1_3, Q8TBB1): below the threshold | pKd (LIMK2, P53671): below the threshold | pKd (FRMPD2_3, Q68DX3): below the threshold | pKd (GRIP1_4, Q9Y3R0): below the threshold | pKd (DLG1_2, Q12959): 3.78 | pKd (MPP6, Q9NZW5): below the threshold | pKd (LIN7A, O14910): below the threshold | pKd (MAST1, Q9Y2H9): 4.88 | pKd (DLG3_2, Q92796): 4.37 | pKd (LNX1_1, Q8TBB1): below the threshold | pKd (HTRA1, Q92743): 4.64 | pKd (RAPGEF6, Q8TEU7): below the threshold | pKd (PDZRN4_1, Q6ZMN7): 4.66 | pKd (Inadl_9, Q8NI35): below the threshold | pKd (AHNAK1, Q09666): below the threshold | pKd (NHERF4_4, Q86UT5): below the threshold | pKd (MAGI1_2, Q96QZ7): below the threshold | pKd (FRMPD1, Q5SYB0): below the threshold | pKd (IL16_4, Q14005): below the threshold

B4: CTNNA1, P35221 (peptide)
chain: LSEFKAMDSI
pKd (HTRA2, O43464): below the threshold | pKd (MAGI1_1, Q96QZ7): below the threshold | pKd (MPP7, Q5T2T1): below the threshold | pKd (GRIP2_4, Q9C0E4): below the threshold | pKd (GRIP2_6, Q9C0E4): below the threshold | pKd (SNTG1, Q9NSN8): below the threshold | pKd (GRIP2_5, Q9C0E4): below the threshold | pKd (CARD11, Q9BXL7): below the threshold | pKd (IL16_3, Q14005): below the threshold | pKd (LDB3, O75112): below the threshold | pKd (LNX1_3, Q8TBB1): below the threshold | pKd (LIMK2, P53671): below the threshold | pKd (FRMPD2_3, Q68DX3): below the threshold | pKd (GRIP1_4, Q9Y3R0): below the threshold | pKd (DLG1_2, Q12959): below the threshold | pKd (MPP6, Q9NZW5): below the threshold | pKd (LIN7A, O14910): below the threshold | pKd (MAST1, Q9Y2H9): below the threshold | pKd (DLG3_2, Q92796): 3.56 | pKd (LNX1_1, Q8TBB1): below the threshold | pKd (HTRA1, Q92743): below the threshold | pKd (RAPGEF6, Q8TEU7): below the threshold | pKd (PDZRN4_1, Q6ZMN7): below the threshold | pKd (Inadl_9, Q8NI35): below the threshold | pKd (AHNAK1, Q09666): below the threshold | pKd (NHERF4_4, Q86UT5): below the threshold | pKd (MAGI1_2, Q96QZ7): below the threshold | pKd (FRMPD1, Q5SYB0): below the threshold | pKd (IL16_4, Q14005): below the threshold

Now from value to binder:

pKd (HTRA2, O43464): 3.94 | pKd (MAGI1_1, Q96QZ7): below the threshold | pKd (MPP7, Q5T2T1): below the threshold | pKd (GRIP2_4, Q9C0E4): below the threshold | pKd (GRIP2_6, Q9C0E4): below the threshold | pKd (SNTG1, Q9NSN8): 3.6 | pKd (GRIP2_5, Q9C0E4): below the threshold | pKd (CARD11, Q9BXL7): below the threshold | pKd (IL16_3, Q14005): below the threshold | pKd (LDB3, O75112): below the threshold | pKd (LNX1_3, Q8TBB1): below the threshold | pKd (LIMK2, P53671): below the threshold | pKd (FRMPD2_3, Q68DX3): below the threshold | pKd (GRIP1_4, Q9Y3R0): below the threshold | pKd (DLG1_2, Q12959): 4.18 | pKd (MPP6, Q9NZW5): below the threshold | pKd (LIN7A, O14910): below the threshold | pKd (MAST1, Q9Y2H9): below the threshold | pKd (DLG3_2, Q92796): 4.33 | pKd (LNX1_1, Q8TBB1): below the threshold | pKd (HTRA1, Q92743): 4.38 | pKd (RAPGEF6, Q8TEU7): 3.5 | pKd (PDZRN4_1, Q6ZMN7): below the threshold | pKd (Inadl_9, Q8NI35): 3.91 | pKd (AHNAK1, Q09666): below the threshold | pKd (NHERF4_4, Q86UT5): below the threshold | pKd (MAGI1_2, Q96QZ7): below the threshold | pKd (FRMPD1, Q5SYB0): below the threshold | pKd (IL16_4, Q14005): below the threshold
B1: GJD4, Q96KN9 (peptide)
chain: HLRARKSEWV

pKd (HTRA2, O43464): 4.68 | pKd (MAGI1_1, Q96QZ7): 3.62 | pKd (MPP7, Q5T2T1): 3.84 | pKd (GRIP2_4, Q9C0E4): below the threshold | pKd (GRIP2_6, Q9C0E4): 4.94 | pKd (SNTG1, Q9NSN8): 3.61 | pKd (GRIP2_5, Q9C0E4): below the threshold | pKd (CARD11, Q9BXL7): below the threshold | pKd (IL16_3, Q14005): below the threshold | pKd (LDB3, O75112): below the threshold | pKd (LNX1_3, Q8TBB1): 3.8 | pKd (LIMK2, P53671): below the threshold | pKd (FRMPD2_3, Q68DX3): 3.71 | pKd (GRIP1_4, Q9Y3R0): below the threshold | pKd (DLG1_2, Q12959): 3.84 | pKd (MPP6, Q9NZW5): below the threshold | pKd (LIN7A, O14910): below the threshold | pKd (MAST1, Q9Y2H9): below the threshold | pKd (DLG3_2, Q92796): 4.18 | pKd (LNX1_1, Q8TBB1): below the threshold | pKd (HTRA1, Q92743): 5.61 | pKd (RAPGEF6, Q8TEU7): 3.57 | pKd (PDZRN4_1, Q6ZMN7): below the threshold | pKd (Inadl_9, Q8NI35): 3.68 | pKd (AHNAK1, Q09666): below the threshold | pKd (NHERF4_4, Q86UT5): 3.62 | pKd (MAGI1_2, Q96QZ7): below the threshold | pKd (FRMPD1, Q5SYB0): below the threshold | pKd (IL16_4, Q14005): below the threshold
B5: TRAF7, Q6Q0C0 (peptide)
chain: VDSTVKVWTC

— paper PMC9482650, “Quantitative fragmentomics allow affinity mapping of interactomes” (Nature Communications, 2022)
